Earlier results in patent US11097005B2, “Use of cadherin-11 antagonists to treat metabolic disorders and/or increase insulin sensitivity” (The Brigham and Women's Hospital, Inc., priority 2014, dated 2021).

Conditions: ob/ob mice; IL-33 administration

B1: IL-33: cytokine, ST2 ligand; administration to ob/ob mice cited from literature (protein, UniProt Q8BVZ5 1-266, looked up)
Interleukin-33: MRPRMKYSNSKISPAKFSSTAGEALVPPCKIRRSQQKTKEFCHVYCMRLRSGLTIRKETSYFRKEPTKRYSLKSGTKHEENFSAYPRDSRKRSLLGSIQAFAASVDTLSIQGTSLLTQSPASLSTYNDQSVSFVLENGCYVINVDDSGKDQEQDQVLLRYYESPCPASQSGDGVDGKKLMVNMSPIKDTDIWLHANDKDYSVELQRGDVSPPEQAFFVLHKKSSDFVSFECKNLPGTYIGVKDNQLALVEEKDESCNNIMFKLSKI
- accumulation of M2-macrophages in adipose tissue: improve
- glucose tolerance: improve
